The target of this assay is T1, μMASS^2A (rat).
T1 chain: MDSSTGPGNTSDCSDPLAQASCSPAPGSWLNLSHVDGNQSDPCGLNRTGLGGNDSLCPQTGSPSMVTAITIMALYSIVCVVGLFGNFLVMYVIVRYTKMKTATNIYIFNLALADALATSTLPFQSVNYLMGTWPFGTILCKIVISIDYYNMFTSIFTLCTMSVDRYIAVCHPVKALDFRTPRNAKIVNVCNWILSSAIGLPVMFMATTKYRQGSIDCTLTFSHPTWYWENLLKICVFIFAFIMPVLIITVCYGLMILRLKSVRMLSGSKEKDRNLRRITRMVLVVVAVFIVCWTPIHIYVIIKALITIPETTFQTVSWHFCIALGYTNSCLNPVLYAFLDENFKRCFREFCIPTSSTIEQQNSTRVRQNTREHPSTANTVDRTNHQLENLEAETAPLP
Kind of assay: other fluorescence titration.

B1: β-endorphin (peptide, UniProt P01189 237-267, looked up)
peptide: YGGFMTSEKSQTPLVTLFKNAIIKNAYKKGE
The term Kd denotes the equilibrium constant for the complex coming apart. Lower therefore signals higher affinity. B1 gave a Kd of 1180 nM.

Values taken from paper doi:10.1101/2022.06.01.494241 (bioRxiv, 2022).
